Reference: publication PMC12448856, “Decoding the base flipping mechanism of the SET- and RING-associated (SRA) domain of the epigenetic UHRF1 protein”

Experiments:
UHRF1 SRA domain [1] = molecular target: T1, UHRF1 SRA domain (human, UniProt Q96T88 408-643); experiment: intrinsic Trp fluorescence titration; 1 uM SRA; 20 mM PBS pH 7.5, 50 mM NaCl, 2.5 mM TCEP, 0.05% PEG 20000, 20 C; duplex 1 uM in anisotropy; settings: protein: recombinant; 12 bp duplex
T1 sequence: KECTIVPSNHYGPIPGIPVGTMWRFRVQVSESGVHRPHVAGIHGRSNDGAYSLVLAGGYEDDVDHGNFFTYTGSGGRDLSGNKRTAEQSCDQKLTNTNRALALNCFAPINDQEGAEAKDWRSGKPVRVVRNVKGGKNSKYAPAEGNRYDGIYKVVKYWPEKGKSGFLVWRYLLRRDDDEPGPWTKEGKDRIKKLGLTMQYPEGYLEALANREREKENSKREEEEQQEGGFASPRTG

UHRF1 SRA domain [2] = molecular target: T1, UHRF1 SRA domain; experiment: as above; settings: protein: recombinant; 12 bp duplex; remark: listed apart in the source

Row | Binder | Ka (UHRF1 SRA domain [1]) | Ka (UHRF1 SRA domain [2])
1 | HM duplex, unlabelled (dsDNA, 5mC at position 6 of strand 1) DNA 1: GGGCCCGCAGGG DNA 2: CCCTGCGGGCCC | 8.1 ± 0.2 10^6 M-1 | –
2 | NM duplex, unlabelled (dsDNA) DNA 1: GGGCCCGCAGGG DNA 2: CCCTGCGGGCCC | – | 1.43 ± 0.07 10^6 M-1
